We go through ten molecules from patent US20200369765A1 (INNATE PHARMA, published 2020).

The target of assay [1] is T1, Human Siglec-9 (human, UniProt Q9Y336 18-463).
T1 construct: On transfected CHO cells; also on YTS and KHYG-1 transfectants, primary NK cells and moDC; also called huSiglec-9; CD329
Nature of the assay: flow cytometry titration on moDC vs neuraminidase-treated moDC. The procedure: moDC were desialylated for 2 hours with 25 mU neuraminidase (Roche Diagnostics).
Binding on moDCs and neuraminidase treated moDCs was tested in a titration experiment by flow cytometry. Cells were incubated 1h in Staining Buffer (SB) with primary antibodies at 10 ug/ml and a series of dilution of 1:10. They were washed two times with SB, then incubated 30 min with a Goat F(ab′)² Anti-Human IgG (Fc) PE (Jackson ImmunoResearch), and washed twice with SB.

The target in a further assay is T2, Human Siglec-9 mutant M8 (human, UniProt Q9Y336 18-463).
T2 construct: Expressed on HEK293T cells; also called Mutant 8
Nature of the assay: flow cytometry, HEK293T transfectants; '-' indicates full loss of binding. For orientation: Flow cytometry measures light scatter and fluorescence of single cells or particles in a stream.

For assay [2], the target named is T1, Human Siglec-9. Kind of assay: flow cytometry, CHO Siglec-9 cells, mean n = 2. The method, then: Binding of humanized antibodies was tested on CHO cells transfected with human Siglec-9, in a titration experiment by flow cytometry. Cells were incubated 90 minutes at 37° C. in Staining Buffer (SB) with primary antibodies at 10 ug/ml and a series of dilution of 1:10. They were washed three times with SB, then incubated 30 minutes with a goat F(ab′)² Anti-human IgG (Fc) PE. EC₅₀ values (μg/ml) for Siglec-9 expressing cells are shown below.
Target sequence in this assay (Q9Y336 18-463): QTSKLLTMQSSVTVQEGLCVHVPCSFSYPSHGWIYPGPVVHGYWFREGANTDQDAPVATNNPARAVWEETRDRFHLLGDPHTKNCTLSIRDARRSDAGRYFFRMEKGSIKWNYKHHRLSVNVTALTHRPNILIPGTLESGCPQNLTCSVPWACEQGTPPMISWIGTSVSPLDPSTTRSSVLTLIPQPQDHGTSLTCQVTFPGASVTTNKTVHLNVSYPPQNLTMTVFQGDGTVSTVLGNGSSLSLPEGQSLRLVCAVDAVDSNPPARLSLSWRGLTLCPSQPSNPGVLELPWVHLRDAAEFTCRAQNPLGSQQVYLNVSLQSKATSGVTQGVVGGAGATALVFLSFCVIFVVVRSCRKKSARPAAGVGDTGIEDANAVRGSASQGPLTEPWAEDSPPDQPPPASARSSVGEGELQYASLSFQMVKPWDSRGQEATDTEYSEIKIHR

The target in the next assay is T3, Human Siglec-9 mutant M6 (human, UniProt Q9Y336 18-463).
T3 construct: Expressed on HEK293T cells; also called Mutant 6
Nature of the assay: flow cytometry, HEK293T transfectants; '-' indicates full loss of binding.

For assay [3], the target named is T4, Human Siglec-9 mutant M16 (human, UniProt Q9Y336 18-463).
T4 construct: Expressed on HEK293T cells; also called Mutant 16
The assay is described as above.

The target in assay [4] is T5, Human Siglec-9 mutant M10 (human, UniProt Q9Y336 18-463).
T5 construct: Expressed on HEK293T cells; also called Mutant 10
Described as above.

Assay [5] has as its target T6, Siglec-7 Fc protein (human).
T6 construct: Produced in CHO cells; also called human Siglec-7 Fc
Kind of assay: ELISA, blocking: Siglec-7 Fc captured on protein A, mAb dilution series, then biotinylated polymer Sia2 (6'-Sialyllactose-PAA-biotin), streptavidin-peroxidase (top panel). The procedure: (§1) Blocking of the interaction between Siglec-7 and -9 and sialylated ligands by anti Siglec-7/9 antibodies was tested on ELISA assays. Siglec proteins were Siglec-7 human Fc and Siglec-9 Human Fc recombinant proteins, and ligands were biotinylated polymers with sialylated trisaccharides (Neu5Aca2-3Galb1-4GcNAcb-PAA-biotin Glycotech #01-077 referred to as “Sia1” and 6′-Sialyllactose-PAA-biotin Glycotech #01-039 (referred to as “Sia2”). Briefly, Protein A was coated on ELISA plates over night at 4° C. After 3 washes and saturation, Siglec-7 Fc and Siglec-9 Fc were added at 0.8 μg/well at RT for 1H30. After 3 washes, mAbs were added at 20 ug/ml and a series of dilution of 1:5. After 3 washes, biotinylated sialylated polymers were added for 3 hours at room temperature. After 3 washes, Streptavidin-Peroxidase (Beckman) was added at 1:1000. […] The absorbance was read at 450 nm.
A general note: In an ELISA, binding on a coated surface is turned into a signal by an enzyme label.

Assay [6] deals with T7, Siglec-9 Fc protein (human).
T7 construct: Produced in CHO cells; also called human Siglec-9 Fc
Kind of assay: ELISA, blocking: Siglec-9 Fc captured on protein A, mAb dilution series, then biotinylated polymer Sia2, streptavidin-peroxidase (bottom panel). The method, then: as §1

Assay [7] concerns the target T6, Siglec-7 Fc protein. Nature of the assay: ELISA, blocking: Siglec-7 Fc captured on protein A, mAb dilution series, then biotinylated polymer Sia2, streptavidin-peroxidase (bottom panel); partial inhibition. The procedure: as §1
For assay [8], the target named is T7, Siglec-9 Fc protein. Kind of assay: ELISA, blocking: Siglec-9 Fc captured on protein A, mAb dilution series, then biotinylated polymer Sia1, streptavidin-peroxidase (top panel); weak partial inhibition. The procedure:
as §1

Positions count from the first letter of the chain named.

As usually defined, the EC50 is the concentration needed to bring the measured effect to its halfway point. A low value points to greater potency.

T6 sequence (chain, as listed by the source limits assumed): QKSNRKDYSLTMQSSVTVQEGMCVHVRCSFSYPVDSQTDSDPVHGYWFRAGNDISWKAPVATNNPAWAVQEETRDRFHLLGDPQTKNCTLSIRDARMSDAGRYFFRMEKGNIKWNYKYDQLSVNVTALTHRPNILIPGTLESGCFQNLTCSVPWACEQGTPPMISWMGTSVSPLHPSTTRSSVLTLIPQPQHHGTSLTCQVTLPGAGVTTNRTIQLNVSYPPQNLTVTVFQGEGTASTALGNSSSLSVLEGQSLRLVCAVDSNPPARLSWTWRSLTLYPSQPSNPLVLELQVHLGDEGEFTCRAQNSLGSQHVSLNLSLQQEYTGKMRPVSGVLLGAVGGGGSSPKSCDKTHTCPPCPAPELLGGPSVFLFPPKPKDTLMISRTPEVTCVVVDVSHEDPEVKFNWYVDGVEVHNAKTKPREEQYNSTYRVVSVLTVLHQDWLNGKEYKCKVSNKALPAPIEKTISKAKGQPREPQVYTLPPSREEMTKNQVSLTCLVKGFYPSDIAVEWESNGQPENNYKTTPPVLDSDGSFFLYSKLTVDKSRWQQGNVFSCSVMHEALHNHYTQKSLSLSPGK
T7 sequence (chain, as listed by the source limits assumed): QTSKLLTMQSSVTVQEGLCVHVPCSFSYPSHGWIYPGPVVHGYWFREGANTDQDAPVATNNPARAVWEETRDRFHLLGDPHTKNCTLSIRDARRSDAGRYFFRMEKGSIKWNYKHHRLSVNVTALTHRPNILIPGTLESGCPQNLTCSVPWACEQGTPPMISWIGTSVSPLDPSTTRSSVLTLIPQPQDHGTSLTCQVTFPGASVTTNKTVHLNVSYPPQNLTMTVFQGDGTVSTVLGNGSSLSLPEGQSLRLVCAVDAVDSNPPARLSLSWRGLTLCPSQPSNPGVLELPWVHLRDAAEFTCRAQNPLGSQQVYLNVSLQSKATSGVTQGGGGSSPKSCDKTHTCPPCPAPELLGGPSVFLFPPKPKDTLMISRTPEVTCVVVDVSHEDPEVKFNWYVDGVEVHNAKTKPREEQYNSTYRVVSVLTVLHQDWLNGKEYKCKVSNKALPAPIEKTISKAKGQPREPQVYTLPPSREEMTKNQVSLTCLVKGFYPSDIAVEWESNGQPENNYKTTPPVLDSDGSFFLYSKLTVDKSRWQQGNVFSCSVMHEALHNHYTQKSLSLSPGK
T5 sequence (Q9Y336 other isoform, or with tags, fused parts or gaps mutant): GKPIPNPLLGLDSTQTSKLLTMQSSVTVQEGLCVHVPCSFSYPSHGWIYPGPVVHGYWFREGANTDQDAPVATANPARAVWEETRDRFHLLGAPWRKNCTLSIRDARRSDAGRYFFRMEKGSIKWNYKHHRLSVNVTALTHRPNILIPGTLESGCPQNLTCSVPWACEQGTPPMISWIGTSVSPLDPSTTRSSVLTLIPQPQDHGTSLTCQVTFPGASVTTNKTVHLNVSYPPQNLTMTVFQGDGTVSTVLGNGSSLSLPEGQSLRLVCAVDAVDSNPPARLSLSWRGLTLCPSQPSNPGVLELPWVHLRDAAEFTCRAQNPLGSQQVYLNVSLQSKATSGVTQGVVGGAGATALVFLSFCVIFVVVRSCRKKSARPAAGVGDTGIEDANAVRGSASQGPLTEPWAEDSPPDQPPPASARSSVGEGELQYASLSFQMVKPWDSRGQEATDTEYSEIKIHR
T4 sequence (Q9Y336 other isoform, or with tags, fused parts or gaps mutant): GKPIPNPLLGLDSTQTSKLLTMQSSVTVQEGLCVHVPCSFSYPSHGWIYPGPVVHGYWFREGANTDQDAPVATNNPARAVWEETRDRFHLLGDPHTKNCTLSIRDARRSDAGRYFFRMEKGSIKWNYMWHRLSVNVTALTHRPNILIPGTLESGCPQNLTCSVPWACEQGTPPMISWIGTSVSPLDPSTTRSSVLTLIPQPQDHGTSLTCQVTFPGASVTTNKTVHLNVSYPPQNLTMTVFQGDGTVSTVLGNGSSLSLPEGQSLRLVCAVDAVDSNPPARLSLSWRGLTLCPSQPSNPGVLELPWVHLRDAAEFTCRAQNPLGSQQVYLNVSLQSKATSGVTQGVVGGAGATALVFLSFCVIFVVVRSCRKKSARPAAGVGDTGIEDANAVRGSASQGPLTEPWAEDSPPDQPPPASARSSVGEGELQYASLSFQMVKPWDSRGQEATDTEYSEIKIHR
T3 sequence (Q9Y336 other isoform, or with tags, fused parts or gaps mutant): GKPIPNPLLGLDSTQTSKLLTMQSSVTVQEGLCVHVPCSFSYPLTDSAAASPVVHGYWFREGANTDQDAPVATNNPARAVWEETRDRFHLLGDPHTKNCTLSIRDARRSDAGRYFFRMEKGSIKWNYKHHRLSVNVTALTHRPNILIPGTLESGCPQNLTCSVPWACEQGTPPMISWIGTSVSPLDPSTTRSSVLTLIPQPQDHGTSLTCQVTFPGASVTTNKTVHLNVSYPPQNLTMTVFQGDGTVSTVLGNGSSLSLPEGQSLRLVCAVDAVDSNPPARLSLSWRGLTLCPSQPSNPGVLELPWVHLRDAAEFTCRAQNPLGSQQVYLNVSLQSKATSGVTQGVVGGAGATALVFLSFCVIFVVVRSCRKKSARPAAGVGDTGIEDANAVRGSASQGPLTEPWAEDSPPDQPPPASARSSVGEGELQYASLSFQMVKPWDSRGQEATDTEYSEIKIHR
T2 sequence (Q9Y336 other isoform, or with tags, fused parts or gaps mutant): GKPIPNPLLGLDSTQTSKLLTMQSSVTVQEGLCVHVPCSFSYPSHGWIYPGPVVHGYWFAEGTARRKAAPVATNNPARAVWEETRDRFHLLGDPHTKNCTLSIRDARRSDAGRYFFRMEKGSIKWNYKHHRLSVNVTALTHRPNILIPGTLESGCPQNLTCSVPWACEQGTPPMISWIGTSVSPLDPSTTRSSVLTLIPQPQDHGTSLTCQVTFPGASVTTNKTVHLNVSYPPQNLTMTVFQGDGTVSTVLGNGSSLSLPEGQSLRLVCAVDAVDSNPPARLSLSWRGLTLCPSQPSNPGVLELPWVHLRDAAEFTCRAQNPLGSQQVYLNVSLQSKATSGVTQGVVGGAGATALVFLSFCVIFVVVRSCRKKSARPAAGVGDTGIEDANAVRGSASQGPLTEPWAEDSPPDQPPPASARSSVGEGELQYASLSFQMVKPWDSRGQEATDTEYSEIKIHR

B1: mAbC (antibody, human IgG1, V domains shown)
VH: QIQLVQSGPELKKPGETVKISCKASGYTFTNYEMNWVKEAPGKGLKWMGWINTYTGESTYADDFKGRFAFSLETSASTVYLQINNLKDEDVATYFCVRDDYGRSYGFAYWGQGTLVTVSA
VL: NIVLTQSPASLTVSLGQRANISCRASESVDSYGNSFMHWYQQKPGQPPKLLIYLASKLESGVPARFSGSGSRTDFTLTIDPVETDDAATYYCHQNNEDPPWTFGGGTKLEIK
Turning to B1, in the assay with Human Siglec-9 [1], the “fold change of EC50 after neuraminidase treatment of moDC” value (shortened to “fold change of EC50”) was 10 fold. Besides, in the assay with Human Siglec-9 mutant M8, the binding result is “no binding”.

B2: mAbD (antibody, human IgG1, V domains shown)
VH: QIQLVQSGPELKKPGETVKISCKASGYTFTDYSMHWVKQAPGKGLKWMGWIITETGEPTYADDFRGRFAFSLETSANTAYLQINNLKNEDTATYFCARDFDGYWGQGTTLTVSS
VL: DILMTQSPASLSASVGETVTITCRASENIYSYLAWYQQKRGKSPQFLVYNAKTLTEGVPSRFRGSGSGTQFSLKINSLQPEDFGTYYCQHHYGFPWTFGGGTKLEIK
For B2, a half-maximal effect in the assay with Human Siglec-9 [2] (EC50) was put at 0.036 µg/mL. In addition, in the assay with Human Siglec-9 [1], the “fold change of EC50” value worked out at 10 fold. Besides, the binding result in the assay with Human Siglec-9 mutant M6 was “no binding”.

B3: mAbA (antibody, human IgG1, V domains shown)
VH: QVQLQQPGAELVKPGSPVKLSCKASYFTFTSYWMHWVRQRPGQGLEWIGEINPSNGHTNYNEKFESKATLTVDRSSSTAYMQLSSLTSEDSAVFYCANGVESYDFDDALDYWGQGTSVTVSS
VL: DIQMTQTTSSLSASLGDRVTISCRASQDINNYLNWYQQKPDGTIKLLIYYTSRLHSGVPSRFSGSGSGTDYSLTINNLEQEDIATYFCQQGNTLPFTFGGGTKLEIK
The molecule B3 came in with an EC50 with Human Siglec-9 [2] of 0.03 µg/mL. In addition, the “fold change of EC50” value with Human Siglec-9 [1] came out at 10 fold. Moreover, the binding result in assay [3] is “no binding”.

B4: mAbB (antibody, human IgG1, V domains shown)
VH: QVQLQQPGAELVKPGASVKLSCKASVYTFTSYWMHWVKQRPGQGLEWIGEINPSNGHTNYNEKFKTKAKLTVDKSSSTAYMQLSSLTSEDSAVYFCANGVETYDFDDAMDYWGQGTSVTVSS
VL: B3 VL with I44V, Y50F, N76S, N92D, L94F
Regarding B4, the binding result in assay [3] is reported as “no binding”.

B5: mAbF (antibody, human IgG1, V domains shown)
VH: QVQLQQSGPEVVRPGVSVKISCKGSGYTFTDYSMHWVKQSHAKSLEWIGVISTYNGNTNYNQKFKGKATMTVDKSSSTAYMELARLTSEDSAIYYCARRGYYGSSSWFGYWGQGTLVTVSA
VL: DIVMTQSQKFMSTSVGDRVSVTCKASQNVGTDVAWYQQKPGQSPEALIYSASYRYSGVPDRFTGSGSGADFTLTISNVQSEDLAEYFCQQYNSFPYTFGGGTKLEIK
For the molecule B5, the binding result in [4] is recorded as “no binding”.

B6: mAb6 (antibody, human IgG1, V domains shown)
VH: EIQLQQSGPELEKPGASVKISCKASGYSFSDYNMNWVKQSNGKSLEWIGNIDPYYGATSYNQRFKGKATLTVDKSSSTAYMQLKSLTSEDSAVYYCARGDSLFAYWGQGTLVTVSA
VL: DIVMTQSQEFMSTSLGDRVSVTCKASQNVGTNVAWYQQKPGQSPKALLYSASSRYSGVPDRFTGSGSGTDFTLTINNMQSEDLAEYFCQQYITYPYTFGGGTKLEIK
With B6, the binding result with Siglec-7 Fc protein [5] was “binds”.

B7: mAb1 (antibody, human IgG1, V domains shown)
VH: DVQLQESGPGLVKPSQSLSLTCTVTGYSITGGFAWNWIRQFPGNTLEWMGYIGYGGSTSYNPSLNSRISITRDTSKNHFFLQFNSVTTDDSATYYCARGDYLFAYWGQGTLVTVSA
VL: DIVMTQSHKFMSTSVGDRVSITCKASQDVNTAVAWYQQKPGQSPKLLIYSASYRYTGVPDRFTGSGSGTDFTFTISSVQAEDLAVYYCQQHYSTPRTFGGGTKLEIK
On to B7, for which the binding result in assay [4] was “no binding”. Further, the entries for the “IC50 (read off the curve)” value with Siglec-9 Fc protein [6], with Siglec-7 Fc protein [7] and in the assay with Siglec-9 Fc protein [8] were about 1 µg/mL, about 4 µg/mL and about 2 µg/mL, respectively.

B8: mAb3 (antibody, human IgG1, V domains shown)
VH: B7 VH with D1E, Q5L, S7T, D89E
VL: DILMTQSPASLSASVGETVSITCRASGNIHNYLAWYLQRQGKSPQLLVYNAKTLADGVPSRFSGTGSGTQFSLKINSLQPEDFGSYYCQHFWSTPRTFGGGTKLEIK
For B8, the binding result in [4] is “no binding”.

B9: mAb2 (antibody, human IgG1, V domains shown)
VH: B7 VH with D1E, D89E
VL: B7 VL
As to B9, the binding result in assay [4] is “no binding”. For the same molecule, the results for the “IC50 (read off the curve)” value with Siglec-9 Fc protein [6], with Siglec-7 Fc protein [7] and with Siglec-9 Fc protein [8] were about 1 µg/mL, about 4 µg/mL and about 2 µg/mL, respectively.

B10: mAbE (antibody, human IgG1, V domains shown)
VH: DVQLVESGGGLVQPGGSRKLSCAASGFTFSTFGMHWVRQAPEKGLEWVAYISSGSNAIYYADTVKGRFTISRDNPKNTLFLQMTSLRSEDTAMYYCASPGYGAWFAYWGQGTLVTVSA
VL: ENVLTQSPAIMSASPGEKVTMTCRASSSVSSAYLHWYQQKSGASPKLWIYSTSNLASGVPARFSGSGSGTSYSLTISSVEAEDAATYYCQQYSAYPYTFGGGTKLEIK
On to B10, for which the binding result in assay [4] was “no binding”.
